The record followed here is IntAct's records for PubMed 29039417.

B1: BBSome complex member BBS2 (Homo sapiens), Q9BXC9 (parent)
chain: MLLPVFTLKLRHKISPRMVAIGRYDGTHPCLAAATQTGKVFIHNPHTRNQHVSASRVFQSPLESDVSLLSINQAVSCLTAGVLNPELGYDALLVGTQTNLLAYDVYNNSDLFYREVADGANAIVLGTLGDISSPLAIIGGNCALQGFNHEGSDLFWTVTGDNVNSLALCDFDGDGKKELLVGSEDFDIRVFKEDEIVAEMTETEIVTSLCPMYGSRFGYALSNGTVGVYDKTSRYWRIKSKNHAMSIHAFDLNSDGVNELITGWSNGKVDARSDRTGEVIFKDNFSSAIAGVVEGDYRMDGHIQLICCSVDGEIRGYLPGTAEMRGNLMDTSAEQDLIRELSQKKQNLLLELRNYEENAKAELASPLNEADGHRGIIPANTRLHTTLSVSLGNETQTAHTELRISTSNDTIIRAVLIFAEGIFTGESHVVHPSIHNLSSSICIPIVPPKDVPVDLHLKAFVGYRSSTQFHVFESTRQLPRFSMYALTSLDPASEPISYVNFTIAERAQRVVVWLGQNFLLPEDTHIQNAPFQVCFTSLRNGGHLHIKIKLSGEITINTDDIDLAGDIIQSMASFFAIEDLQVEADFPVYFEELRKVLVKVDEYHSVHQKLSADMADHSNLIRSLLVGAEDARLMRDMKTMKSRYMELYDLNRDLLNGYKIRCNNHTELLGNLKAVNQAIQRAGRLRVGKPKNQVITACRDAIRSNNINTLFKIMRVGTASS
partner: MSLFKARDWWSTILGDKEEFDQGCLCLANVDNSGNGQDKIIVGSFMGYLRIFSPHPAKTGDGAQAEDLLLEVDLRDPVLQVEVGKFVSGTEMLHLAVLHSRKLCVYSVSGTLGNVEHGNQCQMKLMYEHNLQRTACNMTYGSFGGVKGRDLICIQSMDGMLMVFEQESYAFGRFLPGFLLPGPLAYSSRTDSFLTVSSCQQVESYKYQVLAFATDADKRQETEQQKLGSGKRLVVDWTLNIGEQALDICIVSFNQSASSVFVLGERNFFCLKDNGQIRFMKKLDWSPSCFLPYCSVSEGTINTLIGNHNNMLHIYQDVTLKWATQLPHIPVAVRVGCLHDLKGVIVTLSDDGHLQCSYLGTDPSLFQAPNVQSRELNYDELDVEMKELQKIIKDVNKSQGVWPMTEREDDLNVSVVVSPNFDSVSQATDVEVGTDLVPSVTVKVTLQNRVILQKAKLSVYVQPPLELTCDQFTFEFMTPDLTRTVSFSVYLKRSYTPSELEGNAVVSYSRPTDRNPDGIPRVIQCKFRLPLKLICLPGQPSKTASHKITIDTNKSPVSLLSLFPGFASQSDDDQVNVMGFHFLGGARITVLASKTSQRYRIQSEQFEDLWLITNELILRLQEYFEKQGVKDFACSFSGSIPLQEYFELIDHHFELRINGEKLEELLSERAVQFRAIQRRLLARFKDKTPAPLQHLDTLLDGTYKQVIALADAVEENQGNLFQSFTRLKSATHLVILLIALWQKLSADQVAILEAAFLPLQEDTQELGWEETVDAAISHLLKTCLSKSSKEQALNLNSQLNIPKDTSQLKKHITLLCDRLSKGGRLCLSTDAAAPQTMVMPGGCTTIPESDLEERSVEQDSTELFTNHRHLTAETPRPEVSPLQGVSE

This assay covers variants of B1. The settings on record: with pthb1_human BBS9, Q3SYG4.
Turning to S465E, the “effect of a mutation on the interaction” value is listed as “with no effect”.

Take S465A: the “effect of a mutation on the interaction” value is recorded as “with no effect”.

On to S465K, for which the “effect of a mutation on the interaction” value is on record as “with no effect”.

As for V461K, the “effect of a mutation on the interaction” value is listed as “disrupting interaction strength”.

Regarding V461M, the “effect of a mutation on the interaction” value is recorded as “disrupting interaction strength”.

As to V461E, the “effect of a mutation on the interaction” value was “disrupting interaction strength”.

With V461A, the “effect of a mutation on the interaction” value was “disrupting interaction strength”.

With A485K, the “effect of a mutation on the interaction” value was “with no effect”.

With A485S, the “effect of a mutation on the interaction” value is given as “disrupting interaction strength”.

Take A485E: the “effect of a mutation on the interaction” value is “with no effect”.

Take S439N: the “effect of a mutation on the interaction” value is “disrupting interaction strength”.

As to S439K, the “effect of a mutation on the interaction” value is recorded as “with no effect”.

On to S439E, for which the “effect of a mutation on the interaction” value is reported as “disrupting interaction strength”.

Consider S439A, for which the “effect of a mutation on the interaction” value is recorded as “disrupting interaction strength”.

For Y484E, the “effect of a mutation on the interaction” value was “disrupting interaction strength”.

For the variant Y484K, the “effect of a mutation on the interaction” value is “disrupting interaction strength”.

Y484A: the “effect of a mutation on the interaction” value is listed as “disrupting interaction strength”.

Consider A459T, for which the “effect of a mutation on the interaction” value is reported as “disrupting interaction strength”.

In the case of A459E, the “effect of a mutation on the interaction” value is “disrupting interaction strength”.

In the case of A459K, the “effect of a mutation on the interaction” value is recorded as “disrupting interaction strength”.

In the case of E473K, the “effect of a mutation on the interaction” value is reported as “with no effect”.

In the case of E473A, the “effect of a mutation on the interaction” value was “with no effect”.

Regarding F472E, the “effect of a mutation on the interaction” value is on record as “with no effect”.

Regarding F472A, the “effect of a mutation on the interaction” value was “with no effect”.

As for F472K, the “effect of a mutation on the interaction” value was “with no effect”.

As for Y463A, the “effect of a mutation on the interaction” value was “with no effect”.

Regarding Y463K, the “effect of a mutation on the interaction” value is “with no effect”.

As to Y463E, the “effect of a mutation on the interaction” value was “with no effect”.

For the variant F469K, the “effect of a mutation on the interaction” value is given as “disrupting interaction strength”.

In the case of F469E, the “effect of a mutation on the interaction” value is “disrupting interaction strength”.

Turning to F469L, the “effect of a mutation on the interaction” value was “disrupting interaction strength”.

With F469A, the “effect of a mutation on the interaction” value is “with no effect”.

Take F460A: the “effect of a mutation on the interaction” value is listed as “disrupting interaction strength”.

For the variant F460E, the “effect of a mutation on the interaction” value was “disrupting interaction strength”.

On to F460K, for which the “effect of a mutation on the interaction” value was “with no effect”.

On to I443E, for which the “effect of a mutation on the interaction” value is reported as “disrupting interaction strength”.

As for I443A, the “effect of a mutation on the interaction” value is “disrupting interaction strength”.

On to I443K, for which the “effect of a mutation on the interaction” value is given as “disrupting interaction strength”.

Regarding F481K, the “effect of a mutation on the interaction” value is “disrupting interaction strength”.

Turning to F481E, the “effect of a mutation on the interaction” value is “disrupting interaction strength”.

Regarding F481A, the “effect of a mutation on the interaction” value is “disrupting interaction strength”.

Regarding D454A, the “effect of a mutation on the interaction” value is reported as “with no effect”.

Regarding D454K, the “effect of a mutation on the interaction” value was “with no effect”.

In the case of D454E, the “effect of a mutation on the interaction” value is reported as “with no effect”.

P448A: the “effect of a mutation on the interaction” value is “with no effect”.

With P448E, the “effect of a mutation on the interaction” value was “with no effect”.

P448K: the “effect of a mutation on the interaction” value is on record as “with no effect”.

For V451E, the “effect of a mutation on the interaction” value is “with no effect”.

For V451A, the “effect of a mutation on the interaction” value is listed as “with no effect”.

With V451K, the “effect of a mutation on the interaction” value was “with no effect”.

P452A: the “effect of a mutation on the interaction” value is on record as “with no effect”.

P452K: the “effect of a mutation on the interaction” value is “with no effect”.

Regarding P452E, the “effect of a mutation on the interaction” value is “with no effect”.

For the variant H456K, the “effect of a mutation on the interaction” value is on record as “with no effect”.

On to H456E, for which the “effect of a mutation on the interaction” value is recorded as “with no effect”.

For the variant H456A, the “effect of a mutation on the interaction” value is recorded as “with no effect”.

With S474E, the “effect of a mutation on the interaction” value is recorded as “with no effect”.

S474K: the “effect of a mutation on the interaction” value is listed as “disrupting interaction strength”.

Consider S474A, for which the “effect of a mutation on the interaction” value is on record as “disrupting interaction strength”.

Regarding I441E, the “effect of a mutation on the interaction” value is recorded as “with no effect”.

As for I441K, the “effect of a mutation on the interaction” value is “with no effect”.

In the case of I441A, the “effect of a mutation on the interaction” value is listed as “with no effect”.

Turning to R476K, the “effect of a mutation on the interaction” value is recorded as “with no effect”.

Turning to R476A, the “effect of a mutation on the interaction” value is listed as “with no effect”.

Regarding R476E, the “effect of a mutation on the interaction” value is “with no effect”.

For the variant R464K, the “effect of a mutation on the interaction” value is recorded as “with no effect”.

With R464E, the “effect of a mutation on the interaction” value was “with no effect”.

For R464A, the “effect of a mutation on the interaction” value is reported as “with no effect”.

Turning to L437E, the “effect of a mutation on the interaction” value is on record as “with no effect”.

For the variant L437K, the “effect of a mutation on the interaction” value was “disrupting interaction strength”.

For G462S, the “effect of a mutation on the interaction” value was “disrupting interaction strength”.

As for G462D, the “effect of a mutation on the interaction” value is given as “disrupting interaction strength”.

In the case of G462K, the “effect of a mutation on the interaction” value is given as “with no effect”.

Consider G462A, for which the “effect of a mutation on the interaction” value was “with no effect”.

G462E: the “effect of a mutation on the interaction” value is “with no effect”.

With S482P, the “effect of a mutation on the interaction” value was “disrupting interaction strength”.

On to S482E, for which the “effect of a mutation on the interaction” value is recorded as “disrupting interaction strength”.

On to S482K, for which the “effect of a mutation on the interaction” value is “disrupting interaction strength”.

As to S482A, the “effect of a mutation on the interaction” value is reported as “with no effect”.
